*1 amine or outer side, *2 acyl side, *3 side chain or, on linkers, in order; H or OH if unused. Where no end group is shown, it is not given here. Side-chain parts run from the residue outwards. [ ]: non-standard residue; d: D form. The star is where a group is joined. γGlu = O=C(O)[C@H](CCC(=O)[*:2])N[*:1]; Stearoyl = CCCCCCCCCCCCCCCCCC(=O)*; Palmitoyl = CCCCCCCCCCCCCCCC(=O)*; Aib = CC(C)(N)C(=O)O
B1: exendin-4 peptide analogue SEQ ID NO: 30 (peptide)
peptide: Y[Aib]EGTFTSDLSKQK([γGlu-Palmitoyl])DKRAAQDFIEWLKNGGPSSGAPPPS-NH2
modifications: N-terminus assumed
SMILES: CCCCCCCCCCCCCCCC(=O)N[C@@H](CCC(=O)NCCCC[C@H](NC(=O)[C@H](CCC(N)=O)NC(=O)[C@H](CCCCN)NC(=O)[C@H](CO)NC(=O)[C@H](CC(C)C)NC(=O)[C@H](CC(=O)O)NC(=O)[C@H](CO)NC(=O)[C@@H](NC(=O)[C@H](Cc1ccccc1)NC(=O)[C@@H](NC(=O)CNC(=O)[C@H](CCC(=O)O)NC(=O)C(C)(C)NC(=O)[C@@H](N)Cc1ccc(O)cc1)[C@@H](C)O)[C@@H](C)O)C(=O)N[C@@H](CC(=O)O)C(=O)N[C@@H](CCCCN)C(=O)N[C@@H](CCCNC(=N)N)C(=O)N[C@@H](C)C(=O)N[C@@H](C)C(=O)N[C@@H](CCC(N)=O)C(=O)N[C@@H](CC(=O)O)C(=O)N[C@@H](Cc1ccccc1)C(=O)N[C@H](C(=O)N[C@@H](CCC(=O)O)C(=O)N[C@@H](Cc1c[nH]c2ccccc12)C(=O)N[C@@H](CC(C)C)C(=O)N[C@@H](CCCCN)C(=O)N[C@@H](CC(N)=O)C(=O)NCC(=O)NCC(=O)N1CCC[C@H]1C(=O)N[C@@H](CO)C(=O)N[C@@H](CO)C(=O)NCC(=O)N[C@@H](C)C(=O)N1CCC[C@H]1C(=O)N1CCC[C@H]1C(=O)N1CCC[C@H]1C(=O)N[C@@H](CO)C(N)=O)[C@@H](C)CC)C(=O)O
B2: exendin-4 peptide analogue SEQ ID NO: 31 (peptide)
peptide: Y[Aib]QGTFTSDLSIQK([γGlu-Stearoyl])DEQRAKEFIEWLKAGGPSSGAPPPS-NH2
modifications: N-terminus assumed
SMILES: CCCCCCCCCCCCCCCCCC(=O)N[C@@H](CCC(=O)NCCCC[C@H](NC(=O)[C@H](CCC(N)=O)NC(=O)[C@@H](NC(=O)[C@H](CO)NC(=O)[C@H](CC(C)C)NC(=O)[C@H](CC(=O)O)NC(=O)[C@H](CO)NC(=O)[C@@H](NC(=O)[C@H](Cc1ccccc1)NC(=O)[C@@H](NC(=O)CNC(=O)[C@H](CCC(N)=O)NC(=O)C(C)(C)NC(=O)[C@@H](N)Cc1ccc(O)cc1)[C@@H](C)O)[C@@H](C)O)[C@@H](C)CC)C(=O)N[C@@H](CC(=O)O)C(=O)N[C@@H](CCC(=O)O)C(=O)N[C@@H](CCC(N)=O)C(=O)N[C@@H](CCCNC(=N)N)C(=O)N[C@@H](C)C(=O)N[C@@H](CCCCN)C(=O)N[C@@H](CCC(=O)O)C(=O)N[C@@H](Cc1ccccc1)C(=O)N[C@H](C(=O)N[C@@H](CCC(=O)O)C(=O)N[C@@H](Cc1c[nH]c2ccccc12)C(=O)N[C@@H](CC(C)C)C(=O)N[C@@H](CCCCN)C(=O)N[C@@H](C)C(=O)NCC(=O)NCC(=O)N1CCC[C@H]1C(=O)N[C@@H](CO)C(=O)N[C@@H](CO)C(=O)NCC(=O)N[C@@H](C)C(=O)N1CCC[C@H]1C(=O)N1CCC[C@H]1C(=O)N1CCC[C@H]1C(=O)N[C@@H](CO)C(N)=O)[C@@H](C)CC)C(=O)O
B3: exendin-4 peptide analogue SEQ ID NO: 32 (peptide)
peptide: Y[Aib]HGTFTSDLSIQK([γGlu-Stearoyl])EKRAAFEFIEWLKNTGPSSGAPPPS-NH2
modifications: N-terminus assumed
SMILES: CCCCCCCCCCCCCCCCCC(=O)N[C@@H](CCC(=O)NCCCC[C@H](NC(=O)[C@H](CCC(N)=O)NC(=O)[C@@H](NC(=O)[C@H](CO)NC(=O)[C@H](CC(C)C)NC(=O)[C@H](CC(=O)O)NC(=O)[C@H](CO)NC(=O)[C@@H](NC(=O)[C@H](Cc1ccccc1)NC(=O)[C@@H](NC(=O)CNC(=O)[C@H](Cc1c[nH]cn1)NC(=O)C(C)(C)NC(=O)[C@@H](N)Cc1ccc(O)cc1)[C@@H](C)O)[C@@H](C)O)[C@@H](C)CC)C(=O)N[C@@H](CCC(=O)O)C(=O)N[C@@H](CCCCN)C(=O)N[C@@H](CCCNC(=N)N)C(=O)N[C@@H](C)C(=O)N[C@@H](C)C(=O)N[C@@H](Cc1ccccc1)C(=O)N[C@@H](CCC(=O)O)C(=O)N[C@@H](Cc1ccccc1)C(=O)N[C@H](C(=O)N[C@@H](CCC(=O)O)C(=O)N[C@@H](Cc1c[nH]c2ccccc12)C(=O)N[C@@H](CC(C)C)C(=O)N[C@@H](CCCCN)C(=O)N[C@@H](CC(N)=O)C(=O)N[C@H](C(=O)NCC(=O)N1CCC[C@H]1C(=O)N[C@@H](CO)C(=O)N[C@@H](CO)C(=O)NCC(=O)N[C@@H](C)C(=O)N1CCC[C@H]1C(=O)N1CCC[C@H]1C(=O)N1CCC[C@H]1C(=O)N[C@@H](CO)C(N)=O)[C@@H](C)O)[C@@H](C)CC)C(=O)O
B4: exendin-4 peptide analogue SEQ ID NO: 34 (peptide)
peptide: Y[Aib]QGTFTSDLSIQK([γGlu-Palmitoyl])DSRAAQDFIEWLKRGGPSSGAPPPS-NH2
modifications: N-terminus assumed
SMILES: CCCCCCCCCCCCCCCC(=O)N[C@@H](CCC(=O)NCCCC[C@H](NC(=O)[C@H](CCC(N)=O)NC(=O)[C@@H](NC(=O)[C@H](CO)NC(=O)[C@H](CC(C)C)NC(=O)[C@H](CC(=O)O)NC(=O)[C@H](CO)NC(=O)[C@@H](NC(=O)[C@H](Cc1ccccc1)NC(=O)[C@@H](NC(=O)CNC(=O)[C@H](CCC(N)=O)NC(=O)C(C)(C)NC(=O)[C@@H](N)Cc1ccc(O)cc1)[C@@H](C)O)[C@@H](C)O)[C@@H](C)CC)C(=O)N[C@@H](CC(=O)O)C(=O)N[C@@H](CO)C(=O)N[C@@H](CCCNC(=N)N)C(=O)N[C@@H](C)C(=O)N[C@@H](C)C(=O)N[C@@H](CCC(N)=O)C(=O)N[C@@H](CC(=O)O)C(=O)N[C@@H](Cc1ccccc1)C(=O)N[C@H](C(=O)N[C@@H](CCC(=O)O)C(=O)N[C@@H](Cc1c[nH]c2ccccc12)C(=O)N[C@@H](CC(C)C)C(=O)N[C@@H](CCCCN)C(=O)N[C@@H](CCCNC(=N)N)C(=O)NCC(=O)NCC(=O)N1CCC[C@H]1C(=O)N[C@@H](CO)C(=O)N[C@@H](CO)C(=O)NCC(=O)N[C@@H](C)C(=O)N1CCC[C@H]1C(=O)N1CCC[C@H]1C(=O)N1CCC[C@H]1C(=O)N[C@@H](CO)C(N)=O)[C@@H](C)CC)C(=O)O
B5: exendin-4 peptide analogue SEQ ID NO: 35 (peptide)
peptide: Y[Aib]QGTFTSDLSIQK([γGlu-Palmitoyl])DERAAKDFIEWLKAGGPSSGAPPPS-NH2
modifications: N-terminus assumed
SMILES: CCCCCCCCCCCCCCCC(=O)N[C@@H](CCC(=O)NCCCC[C@H](NC(=O)[C@H](CCC(N)=O)NC(=O)[C@@H](NC(=O)[C@H](CO)NC(=O)[C@H](CC(C)C)NC(=O)[C@H](CC(=O)O)NC(=O)[C@H](CO)NC(=O)[C@@H](NC(=O)[C@H](Cc1ccccc1)NC(=O)[C@@H](NC(=O)CNC(=O)[C@H](CCC(N)=O)NC(=O)C(C)(C)NC(=O)[C@@H](N)Cc1ccc(O)cc1)[C@@H](C)O)[C@@H](C)O)[C@@H](C)CC)C(=O)N[C@@H](CC(=O)O)C(=O)N[C@@H](CCC(=O)O)C(=O)N[C@@H](CCCNC(=N)N)C(=O)N[C@@H](C)C(=O)N[C@@H](C)C(=O)N[C@@H](CCCCN)C(=O)N[C@@H](CC(=O)O)C(=O)N[C@@H](Cc1ccccc1)C(=O)N[C@H](C(=O)N[C@@H](CCC(=O)O)C(=O)N[C@@H](Cc1c[nH]c2ccccc12)C(=O)N[C@@H](CC(C)C)C(=O)N[C@@H](CCCCN)C(=O)N[C@@H](C)C(=O)NCC(=O)NCC(=O)N1CCC[C@H]1C(=O)N[C@@H](CO)C(=O)N[C@@H](CO)C(=O)NCC(=O)N[C@@H](C)C(=O)N1CCC[C@H]1C(=O)N1CCC[C@H]1C(=O)N1CCC[C@H]1C(=O)N[C@@H](CO)C(N)=O)[C@@H](C)CC)C(=O)O
B6: exendin-4 peptide analogue SEQ ID NO: 36 (peptide)
peptide: Y[Aib]QGTFTSDLSIQK([γGlu-Palmitoyl])EKRAAHEFIEWLKNTGPSSGAPPPS-NH2
modifications: N-terminus assumed
SMILES: CCCCCCCCCCCCCCCC(=O)N[C@@H](CCC(=O)NCCCC[C@H](NC(=O)[C@H](CCC(N)=O)NC(=O)[C@@H](NC(=O)[C@H](CO)NC(=O)[C@H](CC(C)C)NC(=O)[C@H](CC(=O)O)NC(=O)[C@H](CO)NC(=O)[C@@H](NC(=O)[C@H](Cc1ccccc1)NC(=O)[C@@H](NC(=O)CNC(=O)[C@H](CCC(N)=O)NC(=O)C(C)(C)NC(=O)[C@@H](N)Cc1ccc(O)cc1)[C@@H](C)O)[C@@H](C)O)[C@@H](C)CC)C(=O)N[C@@H](CCC(=O)O)C(=O)N[C@@H](CCCCN)C(=O)N[C@@H](CCCNC(=N)N)C(=O)N[C@@H](C)C(=O)N[C@@H](C)C(=O)N[C@@H](Cc1c[nH]cn1)C(=O)N[C@@H](CCC(=O)O)C(=O)N[C@@H](Cc1ccccc1)C(=O)N[C@H](C(=O)N[C@@H](CCC(=O)O)C(=O)N[C@@H](Cc1c[nH]c2ccccc12)C(=O)N[C@@H](CC(C)C)C(=O)N[C@@H](CCCCN)C(=O)N[C@@H](CC(N)=O)C(=O)N[C@H](C(=O)NCC(=O)N1CCC[C@H]1C(=O)N[C@@H](CO)C(=O)N[C@@H](CO)C(=O)NCC(=O)N[C@@H](C)C(=O)N1CCC[C@H]1C(=O)N1CCC[C@H]1C(=O)N1CCC[C@H]1C(=O)N[C@@H](CO)C(N)=O)[C@@H](C)O)[C@@H](C)CC)C(=O)O

Tests used:
Assay in all cases: cell-based or functional assay
human GIP receptor = molecular target: T1, human GIP receptor (human, UniProt P48546 22-466)
T1 sequence (looked up): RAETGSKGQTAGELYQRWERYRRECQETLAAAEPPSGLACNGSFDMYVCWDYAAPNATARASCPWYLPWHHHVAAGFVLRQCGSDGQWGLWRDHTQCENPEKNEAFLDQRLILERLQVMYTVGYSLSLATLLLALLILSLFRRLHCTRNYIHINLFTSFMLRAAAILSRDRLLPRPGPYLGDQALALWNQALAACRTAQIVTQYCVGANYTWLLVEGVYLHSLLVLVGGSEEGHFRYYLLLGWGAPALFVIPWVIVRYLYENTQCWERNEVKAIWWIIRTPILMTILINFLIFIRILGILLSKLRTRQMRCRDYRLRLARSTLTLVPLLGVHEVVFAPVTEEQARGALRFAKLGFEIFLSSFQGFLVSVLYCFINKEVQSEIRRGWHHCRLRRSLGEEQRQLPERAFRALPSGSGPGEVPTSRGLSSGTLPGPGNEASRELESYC

human glucagon receptor = human glucagon receptor (human, UniProt P47871 26-477)
human GLP-1 receptor = human GLP-1 receptor (human, UniProt P43220 24-463)

Sequence of human glucagon receptor (P47871 26-477): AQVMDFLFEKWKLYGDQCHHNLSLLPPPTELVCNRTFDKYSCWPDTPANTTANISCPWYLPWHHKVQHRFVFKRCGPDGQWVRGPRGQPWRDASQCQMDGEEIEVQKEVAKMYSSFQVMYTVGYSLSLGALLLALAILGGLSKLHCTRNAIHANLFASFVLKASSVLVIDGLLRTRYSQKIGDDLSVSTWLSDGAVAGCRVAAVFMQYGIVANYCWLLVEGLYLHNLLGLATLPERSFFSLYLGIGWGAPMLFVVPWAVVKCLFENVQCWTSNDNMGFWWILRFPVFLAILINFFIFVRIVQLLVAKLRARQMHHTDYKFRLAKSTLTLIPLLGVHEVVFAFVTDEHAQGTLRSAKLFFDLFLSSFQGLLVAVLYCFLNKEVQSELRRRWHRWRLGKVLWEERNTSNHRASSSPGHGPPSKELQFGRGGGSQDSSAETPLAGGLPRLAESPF

Binder	EC50 hGIP R (human GIP receptor) [nM]	EC50 hGLUC R (human glucagon receptor) [nM]	EC50 hGLP-1 R (human GLP-1 receptor) [nM]
B1	0.0163	1.45	0.005
B2	0.0131	0.0041	0.0148
B3	0.0335	0.0192	0.0417
B4	0.0513	0.222	0.0074
B5	0.0182	0.123	0.0035
B6	0.0301	0.0395	0.0052

— US20140213513A1 (Sanofi, priority 2012, published 2014)
